Measurements from patent US20170291955A1.

Legend:
[1] = target: KI_II (mouse; human) (UniProt P70424); test: SPR (ProteOn), variant captured, 39S injected; apparent affinity
[2] = target: KI_II (mouse; human) (UniProt P70424); test: SPR (ProteOn XPR36), variant captured by anti-Her2 polyclonal antibody, 39S injected; apparent affinity
[3] = target: KO_I (mouse; human) (UniProt P70424); test: as above

Kd [1]: 0.168 nM | Kd [2]: 0.163 nM | Kd [3]: 0.095 nM
B1: 39S antibody (antibody, V domains shown)
VH: EVQLVESGGGLVKPGGSLRLSCAASGFTFSSYSMSWVRQAPGKGLEWVSSISSSSSYIYYADSVKGRFTISRDNAKNSLYLQMNSLRAEDTAVYYCARGGDAYNYYYFDYWGQGTLVTVSS
VL: DIVMTQTPLSLSVTPGQPASISCKSSQSVFFRSNNKNILAWYLQKPGQPPQLLIYWASSRESGVPDRFSGSGSGTDFTLKISRVEAEDVGVYYCQQYFGSPFTFGPGTKVDIK
